Reference: patent publication US20210285971

Legend:
[1] = molecular target: synthetic Aβ40 peptide, P05067
[2] = molecular target: synthetic Aβ42 peptide, P05067
synthetic Aβ42 peptide, P05067, sequence (P05067 whole entry, looked up, tested part not stated): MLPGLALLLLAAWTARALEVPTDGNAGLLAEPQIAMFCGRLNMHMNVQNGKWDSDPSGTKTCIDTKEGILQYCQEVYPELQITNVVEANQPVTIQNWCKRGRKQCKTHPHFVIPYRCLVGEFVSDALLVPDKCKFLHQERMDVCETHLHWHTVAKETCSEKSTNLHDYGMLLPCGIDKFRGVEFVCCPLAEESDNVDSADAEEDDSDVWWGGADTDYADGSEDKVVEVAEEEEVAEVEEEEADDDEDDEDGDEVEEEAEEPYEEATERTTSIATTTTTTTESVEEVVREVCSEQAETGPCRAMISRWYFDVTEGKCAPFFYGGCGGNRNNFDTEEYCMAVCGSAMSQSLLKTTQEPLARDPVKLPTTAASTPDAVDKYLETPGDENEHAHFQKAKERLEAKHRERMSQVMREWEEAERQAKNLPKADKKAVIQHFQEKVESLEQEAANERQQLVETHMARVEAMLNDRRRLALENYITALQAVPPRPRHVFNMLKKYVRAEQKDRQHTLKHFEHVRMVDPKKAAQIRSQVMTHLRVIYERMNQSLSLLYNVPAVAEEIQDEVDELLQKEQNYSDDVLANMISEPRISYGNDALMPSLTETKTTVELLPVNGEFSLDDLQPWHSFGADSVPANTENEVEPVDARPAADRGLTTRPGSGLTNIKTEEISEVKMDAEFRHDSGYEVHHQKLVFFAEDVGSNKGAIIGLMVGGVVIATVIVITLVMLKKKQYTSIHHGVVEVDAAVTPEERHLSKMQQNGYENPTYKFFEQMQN

synthetic Aβ40 peptide, P05067, sequence (P05067 whole entry, looked up, tested part not stated): as above

B1: BACE1 from Fc purification (protein)
chain: ETDEEPEEPGRRGSFVEMVDNLRGKSGQGYYVEMTVGSPPQTLNILVDTGSSNFAVGAAPHPFLHRYYQRQLSSTYRDLRKGVYVPYTQGKWEGELGTDLVSIPHGPNVTVRANIAAITESDKFFINGSNWEGILGLAYAEIARPDDSLEPFFDSLVKQTHVPNLFSLQLCGAGFPLNQSEVLASVGGSMIIGGIDHSLYTGSLWYTPIRREWYYEVIIVRVEINGQDLKMDCKEYNYDKSIVDSGTTNLRLPKKVFEAAVKSIKAASSTEKFPDGFWLGEQLVCWQAGTTPWNIFPVISLYLMGEVTNQSFRITILPQQYLRPVEDVATSQDDCYKFAISQSSTGTVMGAVIMEGFYVVFDRARKRIGFAVSACHVHDEFRTAAVEGPFVTLDMEDCGYNIPQTDESTLMTIAY
cleavage in vitro analyzed by MALDI-MS [1]: cleavage of Aβ40 and Aβ42 by BACE1 in vitro
cleavage in vitro analyzed by MALDI-MS [2]: cleavage of Aβ40 and Aβ42 by BACE1 in vitro
